Earlier results on 1 substance are cited in PMC3082853.

This series has as its target FepA (Escherichia coli) (UniProt P05825).
Sequence of UniProt P05825 (P05825 23-746): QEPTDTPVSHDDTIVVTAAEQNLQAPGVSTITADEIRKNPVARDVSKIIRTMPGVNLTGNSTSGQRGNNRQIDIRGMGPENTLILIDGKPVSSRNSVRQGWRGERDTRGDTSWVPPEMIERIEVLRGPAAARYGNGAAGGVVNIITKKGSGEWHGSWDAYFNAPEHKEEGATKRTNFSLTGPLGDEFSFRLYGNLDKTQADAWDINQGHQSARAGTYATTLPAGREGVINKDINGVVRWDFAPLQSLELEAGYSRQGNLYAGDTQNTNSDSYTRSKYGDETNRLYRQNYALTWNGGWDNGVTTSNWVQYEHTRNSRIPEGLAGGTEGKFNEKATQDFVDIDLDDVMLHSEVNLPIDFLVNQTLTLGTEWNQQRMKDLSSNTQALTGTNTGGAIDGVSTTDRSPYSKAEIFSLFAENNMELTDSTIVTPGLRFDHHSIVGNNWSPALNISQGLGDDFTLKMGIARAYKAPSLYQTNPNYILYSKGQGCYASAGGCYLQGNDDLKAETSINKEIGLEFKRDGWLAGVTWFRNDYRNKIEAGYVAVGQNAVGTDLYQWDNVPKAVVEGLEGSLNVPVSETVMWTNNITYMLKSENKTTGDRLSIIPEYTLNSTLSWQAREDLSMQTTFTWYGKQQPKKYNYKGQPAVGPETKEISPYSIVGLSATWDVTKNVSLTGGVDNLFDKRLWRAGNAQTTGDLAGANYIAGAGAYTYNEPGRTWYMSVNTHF

In the case of colicin B (from UniProt P05819), the Kd (as a rule, the constant that tells how readily two partners part at equilibrium) was 185 nM.
